Experimental data as given in the PETadex activity labels (doi:10.1002/cssc.202101062).

Key:
[1] = substrate: PET; experiment: Proxy for plastic degradation [Weight/mass loss]; settings: pH 8
[2] = substrate: gfPET; experiment: Proxy for plastic degradation [Released monomer concentration (HPLC/LC-MS) (TPA+MHET+BHET)]
[3] = substrate: gfPET; experiment: Proxy for plastic degradation [Weight/mass loss]; settings: pH 8
[4] = substrate: PET; experiment: Proxy for plastic degradation [Released monomer concentration (HPLC/LC-MS) (TPA+MHET)]; settings: pH 8

Row | Protein | Proxy for plastic degradation ([1]; 45 °C) [%] | Proxy for plastic degradation ([1]; 50 °C) [%] | Proxy for plastic degradation ([1]; 55 °C) [%] | Proxy for plastic degradation ([1]; 60 °C) [%] | Proxy for plastic degradation ([2]; 40 °C) [mmol/h] | Proxy for plastic degradation ([2]; 50 °C) [mmol/h] | Proxy for plastic degradation ([2]; 55 °C) [mmol/h] | Proxy for plastic degradation ([2]; 60 °C) [mmol/h] | Proxy for plastic degradation ([2]; 65 °C) [mmol/h] | Proxy for plastic degradation ([2]; 70 °C) [mmol/h] | Proxy for plastic degradation ([2]; 75 °C) [mmol/h] | Proxy for plastic degradation ([2]; 80 °C) [mmol/h] | Proxy for plastic degradation ([2]; 85 °C) [mmol/h] | other results
1 | unnamed (protein) MDNPYERGPDPTTQSVEAARGPYAVSQITVGGQFGSYSGGTIYYPTSTTDGKFGAVAIAPGFLSFQSSVAWLGPRIASQGFVVMTIDTGTIFDQPAQRGDQLLDALDFLTQRSSVKDRIDPNRLAVAGWSMGGGGSLEAAADRPSLKAAIPMAGWNLNTNWSRLTTPVLVVGVQNDLIAPVAMHSEPFYNSIRSEKAYLELAGGSHFTVTSANTPQAKLMISWLKRFVDNDTRYEQFICPGPSRGFSVSEYRSTCPF | 2 | 3 | 5 | 8 | 0 | 0.1 | 0.18 | 0.1 | 0 | 0 | 0 | 0 | 0 | 
2 | unnamed (protein) MANPYERGPNPTDALLEARSGPFSVSEENVSRLSASGFGGGTIYYPRENNTYGAVAISPGYTGTEASIAWLGERIASHGFVVITIDTITTLDQPDSRAEQLNAALNHMINRASSTVRSRIDSSRLAVMGHSMGGGGSLRLASQRPDLKAAIPLTPWHLNKNWSSVRVPTLIIGADLDTIAPVLTHARPFYNSLPTSISKAYLELDGATHFAPNIPNKIIGKYSVAWLKRFVDNDTRYTQFLCPGPRDGLFGEVEEYRSTCPF | 0.5 | 1 | 1 | 1 |  |  |  |  |  |  |  |  |  | Proxy for plastic degradation ([1]; 65 °C): 15%; Proxy for plastic degradation ([1]; 70 °C): 18%; Proxy for plastic degradation ([1]; 75 °C): 15%
3 | unnamed (protein) MANPYERGPNPTDALLEARSGPFSVSEENVSRLSASGFGGGTIYYPRENNTYGAVAISPGYTGTEASIAWLGERIASHGFVVITIDTITTLDQPDSRAEQLNAALNHMINRASSTVRSRIDSSRLAVMGHSMGGGGSLRLASQRPDLKAAIPLTPWHLNKNWSSVTVPTLIIGADLDTIAPVATHAKPFYNSLPSSISKAYLELDGATHFAPNIPNKIIGKYSVAWLKRFVDNDTRYTQFLCPGPRDGLFGEVEEYRSTCPF |  |  |  |  | 0 | 0.05 | 0.08 | 0.18 | 0.2 | 0.2 | 0.08 | 0.05 | 0 | Proxy for plastic degradation ([3]; 65 °C): 7%; Proxy for plastic degradation ([3]; 70 °C): 8%; Proxy for plastic degradation ([3]; 75 °C): 2%
4 | unnamed (protein) MANPYERGPDPTVQSIEAVRGPFSVSETNVSRLVVTGFGGGTIYYPRDTSQGTFGAVAIAPGFTASEGSMAWYGPRIASQGFVVFTIDTLTRLDQPDSRGRQLLAALDYLTQRSSVRSRIDSSRLAVMGHSMGGGGSLEASESRPSLKASIPLTPWNLKKNWRNNRVPTLIVGAENDSIASVRTHAEPFYESIPSTTNKAYLELNNATHFAPNISNTTIAKYSISWLKRFVDNDTRYEQFLCPPPRPDRDIEEYRCTCPY | 2 | 2.5 | 1 | 0.5 | 0 | 0.2 | 0.22 | 0.19 | 0.1 | 0.08 | 0.06 | 0.05 | 0.05 | 
5 | unnamed (protein) MANPYERGPAPTTSSIEASRGPFAIASVTVSRSSVSGFGGGTIYYPRDTSEGTFGAVAIAPGFTADEGSMAWYGPRIASQGFVVFTIDTITRLDQPDSRGRQLLAALDYLTQRSSVRSRIDSSRLAVMGHSMGGGGSLEASVSRPSLKAAIPLTPWNLKKNWRDVRVPTLIVGAESDSIASVRTHAEPFYESIPSTTNKAYLELNNATHFAPNISNTTIAKYSISWLKRFVDNDTRYEQFLCPPPRPDRDIEEYRSTCPH | 1 | 2.5 | 1 | 0.5 | 0 | 0.38 | 0.2 | 0.1 | 0.05 | 0.05 | 0.05 | 0.05 | 0.05 | 
6 | unnamed (protein) MDGVLWRVRTAALMAALLALAAWALVWASPSVEAQSNPYQRGPNPTRSALTADGPFSVATYTVSRLSVSGFGGGVIYYPTGTSLTFGGIAMSPGYTADASSLAWLGRRLASHGFVVLVINTNSRFDYPDSRASQLSAALNYLRTSSPSAVRARLDANRLAVAGHSMGGGGTLRIAEQNPSLKAAVPLTPWHTDKTFNTSVPVLIVGAEADTVAPVSQHAIPFYQNLPSTTPKVYVELDNASHFAPNSNNAAISVYTISWMKLWVDNDTRYRQFLCNVNDPALSDFRTNNRHCQ |  |  |  |  |  |  |  |  |  |  |  |  |  | Proxy for plastic degradation ([4]; 0 h): 0 mM; Proxy for plastic degradation ([4]; 4 h): 3 mM; Proxy for plastic degradation ([4]; 8 h): 7 mM; Proxy for plastic degradation ([4]; 16 h): 29 mM
